The values that follow come from patent US11130803B2, “Isoform-selective TGFβ1 inhibitors and use thereof” (Scholar Rock, Inc., priority 2018, dated 2021).

The test system of assay [1] is matrix-associated (LTBP1/LTBP3) and cell-associated (GARP/LRRC33) proTGFβ1 complexes. The assay is described as follows: Octet: average KD and fold bias, matrix- vs cell-associated complexes. The class given is binding, human. As to conditions: average KD of (B) and (C), read-out: (D) ECM AVRG.
Assay [2] has the same test system. The assay is described as above. Type of assay: binding, human. As to conditions: for Kd: average KD of (E) and (F), cell-associated complexes, read-out: (G) Cell AVRG; for (H) G/D (fold bias): ratio of average KD cell-associated / matrix-associated. The text has this: Column (A) of the table lists monoclonal antibodies with discrete amino acid sequences. […] Columns (B), (D), (E) and (F) provide affinities of each of the listed antibodies, measured in KD. […] Average KD values of (B) and (C) are shown in the corresponding column (D), which collectively represents affinities of the antibodies to ECM- or matrix-associated proTGFβ1 complexes. Similarly, Average KD values of (E) and (F) are shown in the corresponding column (G), which collectively represents affinities of the antibodies to cell-surface or cell-associated proTGFβ1 complexes. Finally, relative ratios between the average KD values from columns (D) and (G) are expressed as “fold bias” in column (H). […] This is one way of quantitatively representing and comparing inherent bias of antibodies to their target complexes.
Average KD values between the two matrix-associated and cell-associated complexes are calculated, respectively (see columns (D) and (G)). These average KD values can then be used to ask whether bias in binding activities exists between complexes associated with matrix vs. complexes associated with cell surface (e.g., immune cells). Bias may be expressed as “fold-difference” in the average KD values, as illustrated in Table 8.

Assay [3] concerns hLTBP1-/hLTBP3-proTGFβ1 vs hGARP-/hLRRC33-proTGFβ1 complexes. The assay is described as follows: Solution equilibrium titration: relative affinity (bias) LTBP complexes vs cell-associated complexes. Type of assay: binding, human. As to conditions: for Kd / (H) G/D (fold bias): MSD-SET; for (H) G/D (fold bias): ratio of average KD cell-associated / matrix-associated. The text has this:
Context-biased: As used herein, “context-biased antibodies” refer to a type of conformational antibodies that binds an antigen with differential affinities when the antigen is associated with (i.e., bound to or attached to) an interacting protein or a fragment thereof. Thus, a context-biased antibody that specifically binds an epitope within proTGFβ1 may bind LTBP1-proTGFβ1, LTBP3-proTGFβ1, GARP-proTGFβ1 and LRRC33-proTGFβ1 with different affinities. […] Relative affinities of [matrix-associated complexes]: [cell-associated complexes] may be obtained by taking average KD values of the former, taking average KD values of the latter, and calculating the ratio of the two, as exemplified herein.
In a yet further aspect, the present disclosure provides context-biased TGFβ1 inhibitors. The context-biased antibodies include LTBP-biased antibodies with higher affinities for ECM-associated LLCs than for cell-associated LLCs wherein the affinities are measured at equilibrium.

Assay [4] deals with T1, recombinant human GARP-proTGFβ1 complex (Homo sapiens, UniProt P01137).
T1 construct: made in house
The assay is described as follows: Octet (Biolayer Interferometry) in vitro kinetic binding. As to conditions: in M. The text has this: (§1) Biolayer Interferometry (BLI):BLI is a label-free technology for optically measuring biomolecular interactions, e.g., between a ligand immobilized on the biosensor tip surface and an analyte in solution. BLI provides the ability to monitor binding specificity, rates of association and dissociation, or concentration, with precision and accuracy. BLI platform instruments are commercially available, for example, from ForteBio and are commonly referred to as the Octet® System.
(§2) BLI-based binding assays are widely used in the art for measuring affinities and kinetics of antibodies to antigens. It is a label-free technology in which biomolecular interactions are analyzed on the basis of optical interference. One of the proteins, for example, an antibody being tested, can be immobilized on the biosensor tip. When the other protein in solution, for example, an antigen, becomes bound to the immobilized antibody, it causes a shift in the interference pattern, which can be measured in real-time. This allows the monitoring of binding specificity, rates of association and dissociation, as well as concentration dependency. […] Due to its ease of use and fast results, BLI-based assays such as the Octet® system (available from ForteBio/Molecular Devices, Fremont Calif.), are particularly convenient when used as an initial screening method to identify and separate a pool of “binders” from a pool of “non-binders” or “weak binders” in the screening process.
(§3) Table 8 below provides non-limiting examples of high-affinity, context-independent proTGFβ1 antibodies encompassed by the present invention. The table provides representative results from in vitro binding assays, as measured by Octet®.
(§4) Column (A) of the table lists monoclonal antibodies with discrete amino acid sequences. […] Columns (B), (D), (E) and (F) provide affinities of each of the listed antibodies, measured in KD. […] Average KD values of (B) and (C) are shown in the corresponding column (D), which collectively represents affinities of the antibodies to ECM- or matrix-associated proTGFβ1 complexes. Similarly, Average KD values of (E) and (F) are shown in the corresponding column (G), which collectively represents affinities of the antibodies to cell-surface or cell-associated proTGFβ1 complexes. Finally, relative ratios between the average KD values from columns (D) and (G) are expressed as “fold bias” in column (H). Thus, the greater the number of column (H) is, the greater bias exists for the particular antibody, when comparing binding preferences of the antibody for matrix-associated complexes and cell-surface complexes. This is one way of quantitatively representing and comparing inherent bias of antibodies to their target complexes. Such analyses may be useful in guiding the selection process for a candidate antibody for particular therapeutic use.
(§5) In some embodiments, the binding affinity of an antibody, or antigen binding portion thereof, to an antigen (e.g., protein complex), such as presenting molecule-proTGFβ1 complexes, is determined using an Octet assay. In some embodiments, an Octet assay is an assay that determines one or more a kinetic parameters indicative of binding between an antibody and antigen. In some embodiments, an Octet® system (ForteBio, Menlo Park, Calif.) is used to determine the binding affinity of an antibody, or antigen binding portion thereof, to presenting molecule-proTGFβ1 complexes. For example, binding affinities of antibodies may be determined using the fortéBio Octet QKe dip and read label free assay system utilizing bio-layer interferometry. In some embodiments, antigens are immobilized to biosensors (e.g., streptavidin-coated biosensors) and the antibodies and complexes (e.g., biotinylated presenting molecule-proTGFβ1 complexes) are presented in solution at high concentration ([…]) to measure binding interactions. […]
(BLI is a label-free optical method that tracks binding on a fibre tip over time.)

Assay [5] addresses T2, recombinant human LTBP1-proTGFβ1 complex (Homo sapiens, UniProt P01137).
T2 construct: made in house; host or cells: Expi293F cells, transient co-transfection
The assay is described as above. As to conditions: in M.
Text: as §1, §2, §3, §4, §5

Assay [6] has as its target T3, recombinant human LTBP3-proTGFβ1 complex (Homo sapiens, UniProt P01137).
T3 construct: made in house; host or cells: Expi293F cells, transient co-transfection
The assay is described as above. As to conditions: in M.
Text: as §1, §2, §3, §4, §5

Assay [7] has as its target T4, recombinant human LRRC33-proTGFβ1 complex (Homo sapiens, UniProt P01137).
T4 construct: made in house
Described as above. As to conditions: in M.
Text: as §1, §2, §3, §4, §5

Setting [8] is: average KD of (B) and (C), read-out: (D) ECM AVRG.
Setting [9] is: average KD of (E) and (F), read-out: (G) Cell AVRG.

Read-outs that look alike come from different tables or passages of the source.

T1 sequence (P01137 30-390): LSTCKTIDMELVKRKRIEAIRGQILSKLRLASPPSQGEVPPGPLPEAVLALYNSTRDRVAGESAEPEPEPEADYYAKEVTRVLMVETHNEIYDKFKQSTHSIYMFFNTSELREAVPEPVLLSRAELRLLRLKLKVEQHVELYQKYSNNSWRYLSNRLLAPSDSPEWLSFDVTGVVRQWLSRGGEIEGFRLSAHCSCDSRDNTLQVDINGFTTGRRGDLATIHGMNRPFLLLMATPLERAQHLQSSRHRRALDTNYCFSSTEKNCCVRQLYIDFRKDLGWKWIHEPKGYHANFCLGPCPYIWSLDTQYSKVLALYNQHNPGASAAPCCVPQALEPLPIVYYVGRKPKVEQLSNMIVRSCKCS
T1 sequence (Q14392 20-627 partner limits assumed): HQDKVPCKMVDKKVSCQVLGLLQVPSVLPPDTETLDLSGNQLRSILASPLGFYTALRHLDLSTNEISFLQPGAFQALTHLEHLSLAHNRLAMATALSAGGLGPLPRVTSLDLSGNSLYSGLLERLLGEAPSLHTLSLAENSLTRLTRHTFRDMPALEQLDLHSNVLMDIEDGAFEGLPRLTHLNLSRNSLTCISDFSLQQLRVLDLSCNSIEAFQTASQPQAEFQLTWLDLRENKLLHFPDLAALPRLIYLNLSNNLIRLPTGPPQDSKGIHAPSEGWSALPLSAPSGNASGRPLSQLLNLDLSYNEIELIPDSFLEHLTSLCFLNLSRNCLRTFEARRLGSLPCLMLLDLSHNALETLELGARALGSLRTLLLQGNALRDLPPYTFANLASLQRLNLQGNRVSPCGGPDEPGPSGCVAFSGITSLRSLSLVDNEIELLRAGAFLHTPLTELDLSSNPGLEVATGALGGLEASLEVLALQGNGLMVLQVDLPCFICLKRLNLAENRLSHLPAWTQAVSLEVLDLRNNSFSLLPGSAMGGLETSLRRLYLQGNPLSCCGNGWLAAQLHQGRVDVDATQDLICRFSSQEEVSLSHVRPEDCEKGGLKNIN
T2 sequence (P01137 30-390): as the sequence (P01137 30-390) above
T2 sequence (Q14766 873-1507 partner): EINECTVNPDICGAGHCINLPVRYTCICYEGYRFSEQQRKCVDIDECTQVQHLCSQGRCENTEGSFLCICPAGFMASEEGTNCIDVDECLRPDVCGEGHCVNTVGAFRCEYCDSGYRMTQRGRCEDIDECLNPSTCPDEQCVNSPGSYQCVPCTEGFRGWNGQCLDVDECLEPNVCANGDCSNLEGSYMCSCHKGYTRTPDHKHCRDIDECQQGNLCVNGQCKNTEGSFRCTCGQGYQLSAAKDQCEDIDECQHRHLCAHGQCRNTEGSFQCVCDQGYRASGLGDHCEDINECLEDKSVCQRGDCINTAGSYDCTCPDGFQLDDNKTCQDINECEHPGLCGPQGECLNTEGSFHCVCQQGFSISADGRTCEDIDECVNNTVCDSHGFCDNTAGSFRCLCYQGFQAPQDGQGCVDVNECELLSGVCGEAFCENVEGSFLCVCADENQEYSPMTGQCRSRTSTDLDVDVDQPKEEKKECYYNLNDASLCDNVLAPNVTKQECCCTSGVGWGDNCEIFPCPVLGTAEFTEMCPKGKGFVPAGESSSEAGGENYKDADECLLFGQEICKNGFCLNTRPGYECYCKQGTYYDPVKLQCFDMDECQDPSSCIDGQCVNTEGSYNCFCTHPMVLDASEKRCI
T4 sequence (P01137 30-390): as the sequence (P01137 30-390) above
T4 sequence (Q86YC3 19-650 partner limits assumed): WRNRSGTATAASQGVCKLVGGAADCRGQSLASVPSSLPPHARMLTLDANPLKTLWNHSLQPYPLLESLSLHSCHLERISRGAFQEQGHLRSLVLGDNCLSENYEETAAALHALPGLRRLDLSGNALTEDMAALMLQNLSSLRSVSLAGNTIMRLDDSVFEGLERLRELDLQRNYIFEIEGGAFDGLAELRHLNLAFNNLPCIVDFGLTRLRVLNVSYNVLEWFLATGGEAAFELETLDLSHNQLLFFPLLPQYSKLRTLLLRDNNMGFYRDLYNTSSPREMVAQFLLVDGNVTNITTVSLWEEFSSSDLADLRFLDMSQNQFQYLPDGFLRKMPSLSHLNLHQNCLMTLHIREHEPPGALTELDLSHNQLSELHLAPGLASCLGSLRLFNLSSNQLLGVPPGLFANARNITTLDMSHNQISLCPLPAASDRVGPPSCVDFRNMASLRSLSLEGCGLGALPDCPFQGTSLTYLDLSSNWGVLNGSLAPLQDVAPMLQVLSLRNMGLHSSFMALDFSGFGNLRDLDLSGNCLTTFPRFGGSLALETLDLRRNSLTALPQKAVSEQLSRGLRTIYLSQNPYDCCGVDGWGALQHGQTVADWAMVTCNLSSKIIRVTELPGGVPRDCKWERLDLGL
T3 sequence (P01137 30-390): as the sequence (P01137 30-390) above
T3 sequence (Q9NS15 866-1039 partner limits assumed): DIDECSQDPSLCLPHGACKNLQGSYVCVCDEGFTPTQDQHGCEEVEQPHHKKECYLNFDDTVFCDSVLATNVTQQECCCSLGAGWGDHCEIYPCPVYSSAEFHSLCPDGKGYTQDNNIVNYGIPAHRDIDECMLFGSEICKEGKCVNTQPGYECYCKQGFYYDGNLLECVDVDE

B1: Ab22: monoclonal antibody; VH SEQ ID NO: 130, VL SEQ ID NO: 15 (antibody, V domains shown)
VH: EVQLVESGGGLVQPGGSLRLSCAASGFTFGSFSMNWVRQAPGKGLEWVSYIHSDASTIYYADSVKGRFTISRDNAKNSLYLQMNSLRAEDTAVYYCARGVLDYGDMLDPWGQGTLVTVSS
VL: DIQMTQSPSSLSASVGDRVTITCQASQDITNYLNWYQQKPGKAPKLLIYDASNLETGVPSRFSGSGSGTDFTFTISSLQPEDIATYYCQQADNHPPWTFGGGTKVEIK
B1: the Kd stood at 0.324 nM in assay [1], 0.695 nM in assay [2], 0.042 nM in assay [3] (setting [8]) and 0.114 nM in assay [3] (setting [9]). The “(H) G/D (fold bias)” value in assay [2] is reported as 2.147 fold; in assay [3], 2.71 fold. Besides, the “(E) hGARP, Cell-associated proTGFb1 (KD)” value in assay [4] was 9.74E−10. Also, the “(B) hLTBP1, Matrix-associated proTGFb1 (KD)” value (“(B) hLTBP1” for short) in assay [5] is given as 3.18E−10. Moreover, the “(C) hLTBP3, Matrix-associated proTGFb1 (KD)” value (“(C) hLTBP3” for short) in assay [6] was 3.29E−10. Moreover, the “(F) hLRRC33, Cell-associated proTGFb1 (KD)” value (“(F) hLRRC33” for short) in assay [7] turned out to be 4.15E−10.

B2: Ab11: monoclonal antibody; VH SEQ ID NO: 239, VL SEQ ID NO: 241 (antibody, V domains shown)
VH: EVQLLESGGGLVQPGGSLRLSCAASGFTFRNYAMSWVRQAPGKGLEWVSSISGSGGATYYADSVKGRFTISRDNSKNTLYLQMNSLRAEDTAVYYCARVSSGHWDFDYWGQGTLVTVSS
VL: DIQLTQSPSSLSASVGDRVTITCRASQSISSYLNWYQQKPGKAPKLLIYAASNLQSGVPSRFSGSGSGTDFTLTISSLQPEDFATYYCQQTYTVPLTFGGGTKVEIK
Consider B2, for which the Kd stood at 0.161 nM in assay [1], 0.699 nM in assay [2] and 4.65 nM in assay [3] (setting [9]). Besides, the figures for the “(H) G/D (fold bias)” value in assay [2] and in assay [3] were 4.352 fold and 3.87 fold, respectively. In addition, the “matrix/LTBP-bias in relative affinities between at least one matrix-associated and at least one cell-associated complex” value in assay [3] is reported as “more than five-fold”. In addition, the “(E) hGARP, Cell-associated proTGFb1 (KD)” value in assay [4] came out at 8.42E−10. For the same molecule, in assay [5], the “(B) hLTBP1” value was found to be 1.67E−10. In assay [6], the “(C) hLTBP3” value turned out to be 1.54E−10. Moreover, the “(F) hLRRC33” value in assay [7] is recorded as 5.55E−10.

B3: Ab20: monoclonal antibody; VH SEQ ID NO: 251, VL SEQ ID NO: 241 (antibody, V domains shown)
VH: EVQLLESGGGLVQPGGSLRLSCAASGFTFSAYAMTWVRQAPGKGLEWVSAISGSGGVTYYADSVKGRFTISRDNSKNTLYLQMNSLRAEDTAVYYCARVSSGHWDYDYWGQGTLVTVSS
VL: DIQLTQSPSSLSASVGDRVTITCRASQSISSYLNWYQQKPGKAPKLLIYAASNLQSGVPSRFSGSGSGTDFTLTISSLQPEDFATYYCQQTYTVPLTFGGGTKVEIK
For B3, the Kd in assay [1] was 0.162 nM; in assay [2], 0.715 nM; in assay [3] (setting [8]), 0.2 nM. For the same molecule, the “(H) G/D (fold bias)” value worked out at 4.424 fold in assay [2] and 6.75 fold in assay [3]. The “matrix/LTBP-bias in relative affinities between at least one matrix-associated and at least one cell-associated complex” value in assay [3] is listed as “more than five-fold”. Further, in assay [3] (solution equilibrium titration), the “average affinity for human LTBP1-/LTBP3-proTGFβ1 relative to human GARP-/LRRC33-proTGFβ1 complexes (LTBP-biased)” value is “proTGFβ1 and LTBP3-proTGFβ1 complexes is at least five-fold”. Besides, the “(E) hGARP, Cell-associated proTGFb1 (KD)” value in assay [4] is on record as 8.84E−10. In addition, in assay [5], the “(B) hLTBP1” value came to 1.92E−10. The “(C) hLTBP3” value in assay [6] amounted to 1.31E−10. The “(F) hLRRC33” value in assay [7] came to 5.45E−10.
